The text below walks through data of publication PMC4260879.

What is called EC50 is the concentration that produces a half-maximal response. A low value points to greater potency. What is called stoichiometry N is a count of units in the complex or per binding partner.

Test [1] deals with UG37 gp140 (HIV-1). Put plainly: ELISA; gp140 coated at 2 ug/ml (2 hr, 37 C); CD4-IgG2 titrated, 2 hr at RT; detected with anti-human-IgG-HRP; one-site binding fit, EC50 at 50% of maximum binding. For orientation: In an ELISA, binding on a coated surface is turned into a signal by an enzyme label.
Test [2] concerns the target UG37 gp140 (HIV-1). Put plainly: SEC; Superdex200 26/60; trimer peak after Talon, re-run after GNA-lectin capture. For orientation: In gel filtration, larger molecules generally elute earlier.

Take “CD4-IgG2 (from UniProt P01730 26-458) (Fc fusion)”: in the test with UG37 gp140 (HIV-1) [1], the EC50 was 0.18 nM. Consider UG37 gp140 (domain or fragment), for which the stoichiometry N with UG37 gp140 (HIV-1) [2] was found to be 3.
